Here are results for 3 molecules from paper PMC2948513 (PLoS ONE, 2010).

The target of assay [1] is Ezrin N-terminus, 1-310 (UniProt P15311). Briefly: biotin-peptide streptavidin-agarose pull-down, MBP blot. The conditions noted are these: reference: non-phosphorylated NEP-NT peptide; sites S6.
Assay [2] has as its target PTEN C-terminal domain, 367-403 (UniProt P60484). Briefly: biotin-peptide streptavidin-agarose pull-down, PTEN blot. Particulars: reference: non-phosphorylated NEP-NT peptide; sites S6.
For assay [3] the target is unchanged. Briefly: SPR, peptide on streptavidin chip. The conditions noted are these: reference: non-phosphorylated NEP-NT peptide; sites S6. On the technique in general: In SPR one partner is held on a chip, and binding of the other changes the refractive index at the surface.
The target of assay [4] is Ezrin N-terminus, 1-310 (UniProt P15311). Briefly: SPR, peptide on streptavidin chip. The conditions noted are these: reference: non-phosphorylated NEP-NT peptide; sites S6.
Assay [5] deals with T1, fusion protein of the maltose binding protein (MBP) and the N-terminus of Ezrin (amino acids 1-310) (human, UniProt P15311 1-310).
T1 construct: Ezrin, human, N-terminus, amino acids 1-310; Cloned into the EcoRI/SalI sites of pMAL-c2; also called MBP-Ezrin-NT; MBP Ezrin-NT; source: E. coli DH5α, precipitated by Amylose-resin
Briefly: SPR; Biacore3000; biotin-labeled NEP peptides coupled to streptavidin (SA) chip to ~1000 RU; HBS-P buffer (10 mM HEPES pH 7.4, 150 mM NaCl, 0.005% Surfactant P20), 25°C, 30 µl/min; reference surface without peptide subtracted; MBP Ezrin-NT 0.05-0.8 µM, GST PTEN-CT 1.6-12.8 µM. The conditions noted are these: both partners purified.

Non-standard residues stand in square brackets, D forms with d. No end group written: not given here. *: point of attachment. Biotin = O=C1N[C@H]2[C@H](CS[C@H]2CCCCC(=O)*)N1; pS = N[C@@H](COP(=O)(O)O)C(=O)O

Turning to “Neprilysin (NEP, CD10) N-terminal cytoplasmic domain, 2-23 (from UniProt P08473) pSer6 peptide (pNEP-NT)”, the “binding against the reference” value is “same” in assay [1] and “weaker” in assay [2]. Besides, the values for the KD result in assay [3] and in assay [4] were “weaker; reference ∼0,71” and “same; reference ∼5.8”, respectively.

B1: synthetic biotin-labeled peptide representing the N-terminal cytoplasmic domain (aa 2-23) of human NEP, non-phosphorylated (peptide)
peptide: GKSESQMDITDINTPKPKKKQRK(Biotin)
notes: neprilysin (NEP, neutral endopeptidase 24.11, CD10), human, N-terminal cytoplasmic domain, amino acids 2-23; C-terminal lysine that carries the biotin, named in words only; It is surmised that the biotinylated lysine is an extra residue after aa 23; also called NEP-NT; non-phosphorylated NEP-NT; source: synthetic peptide (Peptide Specialty Labs, Heidelberg)
B1: in assay [5], the dissociation constant Kd (usually a measure of binding affinity in units of concentration) was about 5.8 nM.

B2: synthetic biotin-labeled peptide representing the N-terminal cytoplasmic domain (aa 2-23) of human NEP with serine 6 phosphorylated (peptide)
peptide: GKSE[pS]QMDITDINTPKPKKKQRK(Biotin)
notes: neprilysin (NEP, neutral endopeptidase 24.11, CD10), human, N-terminal cytoplasmic domain, amino acids 2-23, serine 6 phosphorylated; C-terminal lysine that carries the biotin, named in words only; It is surmised that the biotinylated lysine is an extra residue after aa 23; also called pNEP-NT; phosphorylated NEP-NT; source: synthetic peptide (Peptide Specialty Labs, Heidelberg)
For the molecule B2, in assay [5], the dissociation constant (Kd) was about 5.9 nM.
